The record followed here is paper PMC11618653.

For test [1], the target named is cysteine desulfurase NFS1 (subunit of the (NIA)2 subcomplex) (human).
The target of test [2] is iron-sulfur scaffold protein ISCU2, iron-loaded (human) (UniProt Q9H1K1).
Test [3] has as its target cysteine desulfurase NFS1 (subunit of the (NIA)2 subcomplex) (human). This is another data set of the same source.

Chain of UniProt Q9H1K1 (Q9H1K1 35-167): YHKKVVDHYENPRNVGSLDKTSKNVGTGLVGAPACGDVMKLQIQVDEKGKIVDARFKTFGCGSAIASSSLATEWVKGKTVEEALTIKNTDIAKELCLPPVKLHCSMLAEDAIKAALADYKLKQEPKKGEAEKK

With “FDX2 truncation variant lacking 5 C-terminal residues (ΔC5) (from UniProt Q6P4F2 53-181) (domain or fragment)”, the initial rate of [2Fe-2S] cluster synthesis (CD) at 5 µM FDX2 variant, against wild-type FDX2 in test [1] was less than 4 fold higher. On the same count and under the same terms, the result for “FDX2 truncation variant lacking 10 C-terminal residues (ΔC10) (from UniProt Q6P4F2 53-176) (domain or fragment)” reads less than 4 fold higher. In test [2], “FDX2-CL variant (cluster-binding loop residues 109EASL112 replaced with GGSC) (from UniProt Q6P4F2 66-183) (natural protein)” had an initial rates of [2Fe-2S] cluster synthesis (CD) against the concentration of the FDX2 variant, maximum at 1.5 µM, against wild-type FDX2 of 2 fold slower. On to “FDX2-DA variant (Asp137-Asp138 exchanged to Ala) (from UniProt Q6P4F2 66-183) (natural protein)”, for which the initial rate of [2Fe-2S] cluster synthesis on ISCU2 (CD), dithionite-reduced ferredoxin, against dithionite-reduced wild-type FDX2 in test [3] came out at 4 fold slower.
